{"source": "patent US11485987B2", "about": "“Methods for inducing bioorthogonal reactivity” (University of Delaware, priority 2015, dated 2022)", "proteins": {"B1": {"name": "horseradish peroxidase (HRP) (Armoracia rusticana) (protein)", "chain": "QLTPTFYDNSCPNVSNIVRDTIVNELRSDPRIAASILRLHFHDCFVNGCDASILLDNTTSFRTEKDAFGNANSARGFPVIDRMKAAVESACPRTVSCADLLTIAAQQSVTLAGGPSWRVPLGRRDSLQAFLDLANANLPAPFFTLPQLKDSFRNVGLNRSSDLVALSGGHTFGKNQCRFIMDRLYNFSNTGLPDPTLNTTYLQTLRGLCPLNGNLSALVDFDLRTPTIFDNKYYVNLEEQKGLIQSDQELFSSPNATDTIPLVRSFANSTQTFFNAFVEAMDRMGNITPLTGTQGQIRLNCRVVNSNS"}, "B2": {"name": "APEX2 (SEQ ID NO:1) (Glycine max; A134P/E112K/K14D/W41F) (protein)", "chain": "MGKSYPTVSADYQDAVEKAKKKLRGFIAEKRCAPLMLRLAFHSAGTFDKGTKTGGPFGTIKHPAELAHSANNGLDIAVRLLEPLKAEFPILSYADFYQLAGVVAVEVTGGPKVPFHPGREDKPEPPPEGRLPDPTKGSDHLRDVFGKAMGLTDQDIVALSGGHTIGAAHKERSGFEGPWTSNPLIFDNSYFTELLSGEKEGLLQLPSDKALLSDPVFRPLVDKYAADEDAFFADYAEAHQKLSELGFADA"}, "B3": {"name": "F41A APEX2 (Glycine max; A134P/E112K/K14D/W41A) (protein)", "chain": "MGKSYPTVSADYQDAVEKAKKKLRGFIAEKRCAPLMLRLAAHSAGTFDKGTKTGGPFGTIKHPAELAHSANNGLDIAVRLLEPLKAEFPILSYADFYQLAGVVAVEVTGGPKVPFHPGREDKPEPPPEGRLPDPTKGSDHLRDVFGKAMGLTDQDIVALSGGHTIGAAHKERSGFEGPWTSNPLIFDNSYFTELLSGEKEGLLQLPSDKALLSDPVFRPLVDKYAADEDAFFADYAEAHQKLSELGFADA"}}, "type_in_all_cases": "biochemical", "key": {"[1]": {"substrate": "O=C(O)CCC(=O)Nc1ccc(C2=NNC(c3ccccn3)=NN2)nc1", "assay": "Horseradish peroxidase (HRP) catalyzed oxidation of DHTz to tetrazine", "conditions": "other: HRP, peroxide-free, PBS containing EDTA (2.0 mM); pH 7.4; 25.0 °C", "experimental": "Upon addition of horseradish peroxidase (15 nM) the UV-vis spectrum was monitored every 10 seconds. With 50% conversion after 100 seconds, complete conversion of 3a to 4a is observed after 600 seconds, as evidenced by the decrease in the absorption at 292 nm and increase at 325 nm with an isosbestic point at 303 nm. Similar spectral changes are observed when 3a is electrochemically oxidized to 4a in aqueous solution, or when the oxidation of 3a to 4a is photocatalyzed by methylene blue. […] Methylene blue was considered a particularly attractive sensitizer due to its clinical relevance, low molecular weight, low toxicity, high solubility, and an absorption spectrum (λmax 665 nm) that extends to the near IR. Further, methylene blue has previously been explored for applications in photodynamic therapy based on oxidation of indole-3-acetic acid. Rose bengal (λmax 550 nm), used in a range of biomedical applications, was also identified as an excellent sensitizer. […] Methylene blue (4 μM) also catalyzed the conversion of 3a to 4a in the presence of ambient light, with 47% conversion noted after 2 h. […] The mechanism of photooxidation more likely involves electron transfer and is the subject of ongoing study.\nAs a complement to these photocatalyzed reactions, the inventors observed that HRP can efficiently catalyze the oxidation of 3a in the dark at low enzyme concentration (15 nM) (FIG. 4). While HRP typically requires H2O2 as the terminal oxidant, the addition of HRP to a peroxide-free solution of 3a (30 μM) in PBS led to the rapid formation of 4a (FIG. 4, panel B). […]\nSolutions (1 mL) containing 3a (30 μm) in PBS buffer were prepared in a cuvette from stock solutions. Oxidation of 3a to 4a was monitored by recording absorbance at 325 nm every 10 seconds while either hydrogen peroxide (2 mM), HRP (15 nM) or both were added (FIG. 4, panel B). […] The oxidation rate was determined by observing the conversion of 3a to 4a in the first 10 seconds after mixing in HRP (15 nM) and subtracting the background oxidation prior to the addition of HRP."}, "[2]": {"substrate": "CCCCNC(=O)C1=NNC(c2ccccn2)=NN1", "assay": "Oxidation of DHT by APEX2, UV-Vis initial rates and kinetic parameters", "conditions": "pH 7.4, 25.0 °C", "experimental": "(§1) UV-Vis and fluorescence measurements were conducted in quartz cuvettes. All reactions were conducted in phosphate buffered saline (PBS) containing 100 μM EDTA with a pH=7.4. The PBS was prepared by adding 25 mM phosphate salts (Na2HPO4 and NaH2PO4), 100 mM NaCl, 100 μM EDTA to DI water. EDTA was added to quench free metals that can oxidize DHT. The buffer was pH adjusted to 7.4 using 1 mM HCl and 1 mM NaOH. UV experiments were stirred at 25° C. in a temperature-controlled cuvette holder of the spectrophotometer. Solutions of 15 or 16 were prepared from methanol stock solutions.\n(§2) 15 or 16 (60 μM) from methanol stock solutions was added to PBS containing 100 μM EDTA. After 10s, APEX2 (SEQ ID NO:1) (275 nM) was dosed in and oxidation was monitored at 325 nm for 15 and 285 nm for 16 at 60s intervals (FIG. 10B-C).\n(§3) 16 (15 μM) DHT from methanol stock solutions was added to PBS containing 100 μM EDTA. After 10s, APEX2 (SEQ ID NO:1) (275 nM) or HRP (15 nM) was dosed in and oxidation was monitored at 285 nm at 10s intervals (FIG. 10D)\n(§4) SOD (1 μM) was added to PBS containing 100 μM EDTA. 15 or 16 (60 μM) was added from methanol stock solutions. After 10s, APEX2 (SEQ ID NO:1) or F41A APEX2 (275 nM) was dosed in and oxidation was monitored at 325 nm for 15 and 285 nm for 16 at 60s intervals.\n(§5) The initial rate of oxidation was calculated from the first 100 seconds after APEX2 (SEQ ID NO:1) or F41A APEX2 was added ([…]). In the assays where SOD was added, SOD (1 μM) was added to PBS containing 100 μM EDTA and 15 or 16 was dosed in. 10 seconds later, APEX2 (SEQ ID NO:1) or F41A APEX2 ([…]) was added and the rate of oxidation was calculated from the first 100 seconds after APEX2 (SEQ ID NO:1) or F41A APEX2 ([…]) addition. The initial rate of oxidation was adjusted to background oxidation of DHT in PBS with 100 μM EDTA. Kinetic parameters (Table 2) were determined using GraphPad's Prism 6 software from the data presented below (Table 3-4)."}, "[3]": {"substrate": "O=C(O)CCCC(=O)Nc1ccc(C2=NNC(c3ccccn3)=NN2)nc1", "assay": "Oxidation of DHT by APEX2, UV-Vis initial rates and kinetic parameters", "conditions": "pH 7.4, 25.0 °C", "experimental": "as §1, §2, §3, §4, §5"}, "[4]": {"substrate": "CCCCNC(=O)C1=NNC(c2ccccn2)=NN1", "assay": "Oxidation of DHT by F41A APEX2, UV-Vis initial rates and kinetic parameters", "conditions": "other: F41A APEX2 + SOD; pH 7.4; 25.0 °C", "experimental": "as §1, §4, §5"}, "[5]": {"substrate": "O=C(O)CCCC(=O)Nc1ccc(C2=NNC(c3ccccn3)=NN2)nc1", "assay": "Oxidation of DHT by F41A APEX2, UV-Vis initial rates and kinetic parameters", "conditions": "other: F41A APEX2 + SOD; pH 7.4; 25.0 °C", "experimental": "as §1, §4, §5"}, "[6]": {"conditions": "other: APEX2 (SEQ ID NO: 1) + SOD"}, "[7]": {"conditions": "other: APEX2 (SEQ ID NO: 1), no SOD"}}, "data": [{"protein": "B1", "values": [{"measurement": "Km", "setting": "[1]", "value": 100, "unit": "µM"}, {"measurement": "kcat", "setting": "[1]", "value": 27, "unit": "s⁻¹"}, {"measurement": "kcat/Km", "setting": "[1]", "value": 270000, "unit": "M⁻¹ s⁻¹"}]}, {"protein": "B2", "values": [{"measurement": "Km", "setting": "[2]; [6]", "value": 17.29, "unit": "µM"}, {"measurement": "kcat", "setting": "[2]; [6]", "value": 0.115, "unit": "s⁻¹"}, {"measurement": "kcat/Km", "setting": "[2]; [6]", "value": 6662, "unit": "M⁻¹ s⁻¹"}, {"measurement": "Km", "setting": "[2]; [7]", "value": 22.61, "unit": "µM"}, {"measurement": "kcat", "setting": "[2]; [7]", "value": 0.077, "unit": "s⁻¹"}, {"measurement": "kcat/Km", "setting": "[2]; [7]", "value": 3426, "unit": "M⁻¹ s⁻¹"}, {"measurement": "Km", "setting": "[3]; [6]", "value": 41.41, "unit": "µM"}, {"measurement": "kcat", "setting": "[3]; [6]", "value": 0.247, "unit": "s⁻¹"}, {"measurement": "kcat/Km", "setting": "[3]; [6]", "value": 5956, "unit": "M⁻¹ s⁻¹"}, {"measurement": "Km", "setting": "[3]; [7]", "value": 47.56, "unit": "µM"}, {"measurement": "kcat", "setting": "[3]; [7]", "value": 0.197, "unit": "s⁻¹"}, {"measurement": "kcat/Km", "setting": "[3]; [7]", "value": 4134, "unit": "M⁻¹ s⁻¹"}]}, {"protein": "B3", "values": [{"measurement": "Km", "setting": "[4]", "value": 104.6, "unit": "µM"}, {"measurement": "kcat", "setting": "[4]", "value": 0.408, "unit": "s⁻¹"}, {"measurement": "kcat/Km", "setting": "[4]", "value": 3900, "unit": "M⁻¹ s⁻¹"}, {"measurement": "Km", "setting": "[5]", "value": 263, "unit": "µM"}, {"measurement": "kcat", "setting": "[5]", "value": 1.72, "unit": "s⁻¹"}, {"measurement": "kcat/Km", "setting": "[5]", "value": 6533, "unit": "M⁻¹ s⁻¹"}]}]}
